# B1: Thermochromatium tepidum form-IAq RuBisCO large subunit (RbcL) (natural protein, UniProt A0A6I6DX30 1-472, looked up)
# chain: MAKTYSAGVKEYRETYWMPNYTPKDTDILACFKITPQPGVPREEAAAAVAAESSTGTWTTVWTDLLTDLDYYKGRAYAIEDVPGDDTCFYAFIAYPIDLFEEGSVVNVFTSLVGNVFGFKAVRALRLEDVRFPIAYVMTCNGPPHGIQVERDILNKYGRPLLGCTIKPKLGLSAKNYGRAVYECLRGGLDFTKDDENVNSQPFMRWRQRFDFVMEAIDKAERETGERKGHYLNVTAPTPEEMYKRAEYAKEIGAPIIMHDYITGGFCANTGLAQWCRNNGVLLHIHRAMHAVLDRNPHHGIHFRVLTKILRLSGGDHLHTGTVVGKLEGDRQATLGWIDLLRESYVKEDRSRGIFFDQDWGAMPGAFAVASGGIHVWHMPALVTIFGDDSVLQFGGGTLGHPWGNAAGACANRVALEACIEARNQGIPIEKEGKEVLTKAAAHSPELKIAMETWKEIKFEFDSVDKLDVAHK
# Molecular target: the molecule itself
# Test: cryo-EM structure
protein,measurement,value
B1,stoichiometry N,8
